{"source": "paper PMC5584140", "about": "(The Journal of Cell Biology, 2017)", "target": "T1, µ1 MHD carrying a C-terminal Avitag, WT (UniProt Q9BXS5 158-423)", "T1 sequence (looked up)": "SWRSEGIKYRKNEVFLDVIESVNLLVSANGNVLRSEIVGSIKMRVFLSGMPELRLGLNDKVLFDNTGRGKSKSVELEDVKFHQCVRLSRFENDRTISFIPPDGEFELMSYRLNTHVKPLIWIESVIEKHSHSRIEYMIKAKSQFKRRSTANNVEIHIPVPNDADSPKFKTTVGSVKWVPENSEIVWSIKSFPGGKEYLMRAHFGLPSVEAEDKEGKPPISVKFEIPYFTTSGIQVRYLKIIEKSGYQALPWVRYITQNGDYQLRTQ", "experiment": "SPR", "data": [{"binder": "CKVTRRPKASDYQRL", "note": "[TGN38 peptide carrying a canonical YXXΦ signal]", "values": [{"measurement": "Kd", "result": "~20", "unit": "µM"}]}]}
